The values below come from the supplement of paper PMC5998384.

The test system of data set [1] is HeLa Kyoto. The data set can be described thus: solubility change mitosis vs G1/S (difference of NP-40 vs SDS log2 ratios) (log2 ratio difference); higher = more soluble in mitosis.
Data set [2] concerns HeLa Kyoto. Nature of the data set: melting temperature (median over replicates), in situ; higher = more thermally stable.
Data set [3] relates to HeLa Kyoto. Nature of the data set: thermal stability score vs G1/S (z-score of summed log2 fold changes over temperatures); higher = more thermally stable than in G1/S.
For data set [4], the system named is HeLa Kyoto. Nature of the data set: solubility in G1/S (NP-40 vs SDS abundance) (log2 ratio); higher = more soluble. The following applies: cell cycle stage: G1/S.
The mark [5] stands for this setting: cell cycle stage: early G1 (4.5 h after nocodazole release).
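Wherever melting temperature (median over replicates), in situ is given: HeLa Kyoto cells synchronized by double thymidine or nocodazole block, proteins quantified by TMT10plex mass spectrometry, three independent biological replicates.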
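Wherever solubility change mitosis vs G1/S (difference of NP-40 vs SDS log2 ratios) is given: synchronized HeLa Kyoto cells (double thymidine block for G1/S, nocodazole release for mitosis), protein amounts in NP-40 versus SDS lysates quantified by mass spectrometry, three biological replicates.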
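Wherever solubility in G1/S (NP-40 vs SDS abundance) is given: HeLa Kyoto cells arrested at G1/S by double thymidine block, proteins quantified by TMT10plex mass spectrometry in mild NP-40 versus SDS extracts, three biological replicates.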
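Wherever thermal stability score vs G1/S (z-score of summed log2 fold changes over temperatures) is given: synchronized HeLa Kyoto cells, proteins quantified by TMT10plex mass spectrometry, three biological replicates, mitosis taken 0.5 h after nocodazole release, G1/S directly after double thymidine block.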

Take “MKQDASRNAAYTVDCEDYVHVVEFNPFENGDSGNLIAYGGNNYVVIGTCTFQEEEADVEGIQYKTLRTFHHGVRVDGIAWSPETRLDSLPPVIKFCTSAADMKIRLFTSDLQDKNEYKVLEGHTDFINGLVFDPKEGQEIASVSDDHTCRIWNLEGVQTAHFVLHSPGMSVCWHPEETFKLMVAEKNGTIRFYDLLAQQAILSLESEQVPLMSAHWCLKNTFKVGAVAGNDWLIWDITRSSYPQNKRPVHMDRACLFRWSTISENLFATTGYPGKMASQFQIHHLGHPQPILMGSVAVGSGLSWHRTLPLCVIGGDHKLLFWVTEV [NUP37]”: the “solubility change mitosis (log2)” value with HeLa Kyoto [1] came to 0.135. Moreover, the results for the melting temperature with HeLa Kyoto [2] (cell cycle stage: G1/S) and in the data set on HeLa Kyoto [2] (cell cycle stage: mitosis) were 53.3 °C and 51 °C, respectively. Also, the thermal stability score in the data set on HeLa Kyoto [3] (setting [5]) is -3.41; in the data set with HeLa Kyoto [3] (cell cycle stage: mitosis), -4.8. Besides, the “solubility in G1/S (log2)” value with HeLa Kyoto [4] was -0.294.

In the case of “MKQLPVLEPGDKPRKATWYTLTVPGDSPCARVGHSCSYLPPVGNAKRGKVFIVGGANPNRSFSDVHTMDLGKHQWDLDTCKGLLPRYEHASFIPSCTPDRIWVFGGANQSGNRNCLQVLNPETRTWTTPEVTSPPPSPRTFHTSSAAIGNQLYVFGGGERGAQPVQDTKLHVFDANTLTWSQPETLGNPPSPRHGHVMVAAGTKLFIHGGLAGDRFYDDLHCIDISDMKWQKLNPTGAAPAGCAAHSAVAMGKHVYIFGGMTPAGALDTMYQYHTEEQHWTLLKFDTLLPPGRLDHSMCIIPWPVTCASEKEDSNSLTLNHEAEKEDSADKVMSHSGDSHEESQTATLLCLVFGGMNTEGEIYDDCIVTVVD [RABEPK]”, the “solubility change mitosis (log2)” value with HeLa Kyoto [1] was -0.084. Besides, the melting temperature is 56.5 °C with HeLa Kyoto [2] (cell cycle stage: G1/S) and 56 °C in the data set with HeLa Kyoto [2] (cell cycle stage: mitosis). Further, the thermal stability score in the data set on HeLa Kyoto [3] (setting [5]) is -1.33; with HeLa Kyoto [3] (cell cycle stage: mitosis), -1.94. Also, the “solubility in G1/S (log2)” value with HeLa Kyoto [4] came to 0.201.

As for “MKRQGASSERKRARIPSGKAGAANGFLMEVCVDSVESAVNAERGGADRIELCSGLSEGGTTPSMGVLQVVKQSVQIPVFVMIRPRGGDFLYSDREIEVMKADIRLAKLYGADGLVFGALTEDGHIDKELCMSLMAICRPLPVTFHRAFDMVHDPMAALETLLTLGFERVLTSGCDSSALEGLPLIKRLIEQAKGRIVVMPGGGITDRNLQRILEGSGATEFHCSARSTRDSGMKFRNSSVAMGASLSCSEYSLKVTDVTKVRTLNAIAKNILV [CUTC]”, the “solubility change mitosis (log2)” value in the data set on HeLa Kyoto [1] was -0.0574. Besides, the melting temperature amounted to 54.4 °C with HeLa Kyoto [2] (cell cycle stage: G1/S) and 54.1 °C in the data set with HeLa Kyoto [2] (cell cycle stage: mitosis). For the same sequence, the thermal stability score in the data set on HeLa Kyoto [3] (setting [5]) was -0.146; in the data set with HeLa Kyoto [3] (cell cycle stage: mitosis) it was -0.357. For the same sequence, the “solubility in G1/S (log2)” value with HeLa Kyoto [4] was -0.00165.

As for “MKRRTDPECTAPIKKQKKRVAELALSLSSTSDDEPPSSVSHGAKASTTSLSGSDSETEGKQHSSDSFDDAFKADSLVEGTSSRYSMYNSVSQKLMAKMGFREGEGLGKYSQGRKDIVEASSQKGRRGLGLTLRGFDQELNVDWRDEPEPSACEQVSWFPECTTEIPDTQEMSDWMVVGKRKMIIEDETEFCGEELLHSVLQCKSVFDVLDGEEMRRARTRANPYEMIRGVFFLNRAAMKMANMDFVFDRMFTNPRDSYGKPLVKDREAELLYFADVCAGPGGFSEYVLWRKKWHAKGFGMTLKGPNDFKLEDFYSASSELFEPYYGEGGIDGDGDITRPENISAFRNFVLDNTDRKGVHFLMADGGFSVEGQENLQEILSKQLLLCQFLMALSIVRTGGHFICKTFDLFTPFSVGLVYLLYCCFERVCLFKPITSRPANSERYVVCKGLKVGIDDVRDYLFAVNIKLNQLRNTDSDVNLVVPLEVIKGDHEFTDYMIRSNESHCSLQIKALAKIHAFVQDTTLSEPRQAEIRKECLRLWGIPDQARVAPSSSDPKSKFFELIQGTEIDIFSYKPTLLTSKTLEKIRPVFDYRCMVSGSEQKFLIGLGKSQIYTWDGRQSDRWIKLDLKTELPRDTLLSVEIVHELKGEGKAQRKISAIHILDVLVLNGTDVREQHFNQRIQLAEKFVKAVSKPSRPDMNPIRVKEVYRLEEMEKIFVRLEMKIIKGSSGTPKLSYTGRDDRHFVPMGLYIVRTVNEPWTMGFSKSFKKKFFYNKKTKDSTFDLPADSIAPFHICYYGRLFWEWGDGIRVHDSQKPQDQDKLSKEDVLSFIQMHRA [CMTR1]”, in the data set on HeLa Kyoto [1], the “solubility change mitosis (log2)” value was -0.0832. Besides, the melting temperature in the data set on HeLa Kyoto [2] (cell cycle stage: G1/S) worked out at 49.7 °C; in the data set with HeLa Kyoto [2] (cell cycle stage: mitosis) it was 51 °C. For the same sequence, the thermal stability score stood at 0.699 in the data set with HeLa Kyoto [3] (setting [5]) and 1.05 with HeLa Kyoto [3] (cell cycle stage: mitosis). In addition, in the data set with HeLa Kyoto [4], the “solubility in G1/S (log2)” value was -0.186.

In the case of “MKSSVAQIKPSSGHDRRENLNSYQRNSSPEDRYEEQERSPRDRDYFDYSRSDYEHSRRGRSYDSSMESRNRDREKRRERERDTDRKRSRKSPSPGRRNPETSVTQSSSAQDEPATKKKKDELDPLLTRTGGAYIPPAKLRMMQEQITDKNSLAYQRMSWEALKKSINGLINKVNISNISIIIQELLQENIVRGRGLLSRSVLQAQSASPIFTHVYAALVAIINSKFPQIGELILKRLILNFRKGYRRNDKQLCLTASKFVAHLINQNVAHEVLCLEMLTLLLERPTDDSVEVAIGFLKECGLKLTQVSPRGINAIFERLRNILHESEIDKRVQYMIEVMFAVRKDGFKDHPIILEGLDLVEEDDQFTHMLPLEDDYNPEDVLNVFKMDPNFMENEEKYKAIKKEILDEGDTDSNTDQDAGSSEEDEEEEEEEGEEDEEGQKVTIHDKTEINLVSFRRTIYLAIQSSLDFEECAHKLLKMEFPESQTKELCNMILDCCAQQRTYEKFFGLLAGRFCMLKKEYMESFEGIFKEQYDTIHRLETNKLRNVAKMFAHLLYTDSLPWSVLECIKLSEETTTSSSRIFVKIFFQELCEYMGLPKLNARLKDETLQPFFEGLLPRDNPRNTRFAINFFTSIGLGGLTDELREHLKNTPKVIVAQKPDVEQNKSSPSSSSSASSSSESDSSDSDSDSSDSSSESSSEESDSSSISSHSSASANDVRKKGHGKTRSKEVDKLIRNQQTNDRKQKERRQEHGHQETRTERERRSEKHRDQNSSGSNWRDPITKYTSDKDVPSERNNYSRVANDRDQEMHIDLENKHGDPKKKRGERRNSFSENEKHTHRIKDSENFRRKDRSKSKEMNRKHSGSRSDEDRYQNGAERRWEKSSRYSEQSRESKKNQDRRREKSPAKQK [CWC22]”, the “solubility change mitosis (log2)” value in the data set with HeLa Kyoto [1] amounted to 0.227. The melting temperature in the data set with HeLa Kyoto [2] (cell cycle stage: G1/S) came out at 46.1 °C; in the data set on HeLa Kyoto [2] (cell cycle stage: mitosis), 49.3 °C. Further, the thermal stability score in the data set with HeLa Kyoto [3] (setting [5]) stood at 1.24; in the data set with HeLa Kyoto [3] (cell cycle stage: mitosis), 2.43. Besides, the “solubility in G1/S (log2)” value in the data set with HeLa Kyoto [4] is -0.707.

Turning to “MKVHMHTKFCLICLLTFIFHHCNHCHEEHDHGPEALHRQHRGMTELEPSKFSKQAAENEKKYYIEKLFERYGENGRLSFFGLEKLLTNLGLGERKVVEINHEDLGHDHVSHLDILAVQEGKHFHSHNHQHSHNHLNSENQTVTSVSTKRNHKCDPEKETVEVSVKSDDKHMHDHNHRLRHHHRLHHHLDHNNTHHFHNDSITPSERGEPSNEPSTETNKTQEQSDVKLPKGKRKKKGRKSNENSEVITPGFPPNHDQGEQYEHNRVHKPDRVHNPGHSHVHLPERNGHDPGRGHQDLDPDNEGELRHTRKREAPHVKNNAIISLRKDLNEDDHHHECLNVTQLLKYYGHGANSPISTDLFTYLCPALLYQIDSRLCIEHFDKLLVEDINKDKNLVPEDEANIGASAWICGIISITVISLLSLLGVILVPIINQGCFKFLLTFLVALAVGTMSGDALLHLLPHSQGGHDHSHQHAHGHGHSHGHESNKFLEEYDAVLKGLVALGGIYLLFIIEHCIRMFKHYKQQRGKQKWFMKQNTEESTIGRKLSDHKLNNTPDSDWLQLKPLAGTDDSVVSEDRLNETELTDLEGQQESPPKNYLCIEEEKIIDHSHSDGLHTIHEHDLHAAAHNHHGENKTVLRKHNHQWHHKHSHHSHGPCHSGSDLKETGIANIAWMVIMGDGIHNFSDGLAIGAAFSAGLTGGISTSIAVFCHELPHELGDFAVLLKAGMTVKQAIVYNLLSAMMAYIGMLIGTAVGQYANNITLWIFAVTAGMFLYVALVDMLPEMLHGDGDNEEHGFCPVGQFILQNLGLLFGFAIMLVIALYEDKIVFDIQF [SLC39A10]”, the “solubility change mitosis (log2)” value in the data set on HeLa Kyoto [1] is -0.0208. Further, the results for the melting temperature with HeLa Kyoto [2] (cell cycle stage: G1/S) and in the data set on HeLa Kyoto [2] (cell cycle stage: mitosis) were 59.3 °C and 59 °C, respectively. The results for the thermal stability score in the data set on HeLa Kyoto [3] (setting [5]) and in the data set with HeLa Kyoto [3] (cell cycle stage: mitosis) were -2.73 and -0.381, respectively. For the same sequence, the “solubility in G1/S (log2)” value with HeLa Kyoto [4] is -0.0606.
